Data from publication PMC10144703, “Molecular Mechanism of Sirtuin 1 Inhibition by Human Immunodeficiency Virus 1 Tat Protein” (Life, 2023).

Target: T1, human full-length Sirt1 (fl-Sirt1) (Homo sapiens, UniProt Q96EB6)
T1 construct: human full-length Sirt1 (fl-Sirt1) in pET-15b; made in house; host or cells: E. coli CodonPlus(DE3)
T1 sequence (Q96EB6 1-747): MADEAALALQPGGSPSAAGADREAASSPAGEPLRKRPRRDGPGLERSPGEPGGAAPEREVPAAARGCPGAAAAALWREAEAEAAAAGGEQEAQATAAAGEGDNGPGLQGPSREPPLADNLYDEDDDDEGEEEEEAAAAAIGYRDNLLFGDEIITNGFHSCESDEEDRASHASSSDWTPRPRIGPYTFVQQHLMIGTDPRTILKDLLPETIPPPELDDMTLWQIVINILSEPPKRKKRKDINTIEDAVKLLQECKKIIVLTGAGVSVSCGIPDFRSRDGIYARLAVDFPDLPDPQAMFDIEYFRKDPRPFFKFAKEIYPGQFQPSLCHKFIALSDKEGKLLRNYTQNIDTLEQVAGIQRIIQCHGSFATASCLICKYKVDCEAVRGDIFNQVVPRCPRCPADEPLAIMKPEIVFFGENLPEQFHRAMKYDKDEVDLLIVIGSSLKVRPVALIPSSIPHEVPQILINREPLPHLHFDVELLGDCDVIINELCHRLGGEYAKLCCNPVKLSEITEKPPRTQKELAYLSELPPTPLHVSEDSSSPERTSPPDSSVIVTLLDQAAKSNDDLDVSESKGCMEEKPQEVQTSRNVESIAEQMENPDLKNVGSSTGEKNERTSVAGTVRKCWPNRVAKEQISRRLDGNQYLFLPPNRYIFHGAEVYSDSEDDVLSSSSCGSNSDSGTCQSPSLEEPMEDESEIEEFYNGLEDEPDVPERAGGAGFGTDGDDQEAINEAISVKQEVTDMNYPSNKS
Test: FdL deacetylation assay, fl-Sirt1
Format: biochemical
Details: FdL assay, 100 µM FdL-1, 500 µM NAD^+, pH 7.8, 37 °C; n = 2; read-out: IC50, fl-Sirt1, truncated Tat-Cys^− constructs
Excerpt: A human mini-Sirt1 construct (aa 183-505-(GGGS)2-641-665), as described in [27], was generated in a modified pET-19b with a TEV cleavage site. This construct and human full-length Sirt1 (fl-Sirt1) in pET-15b, Sirt1-(183-664) and Sirt1-(214-664) in pET-15b, mini-Sirt1-∆SBD (aa 214-505-(GGGS)2-641-665) and mini-Sirt1-∆ESA (aa 183–505) in a modified pET-19b with TEV cleavage site, Sirt2-(43-356) in a modified pET-19b with a His6-Sumo tag, Sirt3-(93-399) in a modified pET-32a with Trx-His6 tag and TEV cleavage site, hSirt3-(118-399) in pVFT3S (Sungkyunkwan University, Seoul, Republic of Korea) with His6-Trx tag and TEV cleavage site, Sirt5-(34-302) in pET-151/D-TOPO, and Sirt6-(1-355) in pQE80L.1 were purified as described. Shortly, proteins were expressed at 20 °C (mini-Sirt1 constructs at 16 °C) in E. coli CodonPlus(DE3), cell lysates were cleared by centrifugation, and proteins were purified via affinity chromatography using a nickel NTA column. After digestion with thrombin or TEV protease, proteins were re-run over the nickel NTA column, pooled, and concentrated. The samples were, then, subjected either directly to size exclusion chromatography in 50 mM Tris/HCl, pH 8.0, 150 mM NaCl, 1 mM TCEP, or to an ion exchange chromatography followed by size exclusion chromatography. […]

B1: Tat-Cys^− residues 1–63: C-terminally shortened Tat-Cys^− construct, residues 1–63 (protein)
chain: MDPVDPNIEPWNHPGSQPKTASNRAHAKKSAYHSQVAFITKGLGISYGRKKRRQRRRPSQGGQ
IC50: ~10 µM
